Assay results published in PMC10531703.

Molecular target: F10_Y11delinsLN mutant human γS-crystallin (human) (UniProt P22914)
Sequence (P22914 other isoform, or with tags, fused parts or gaps mutant): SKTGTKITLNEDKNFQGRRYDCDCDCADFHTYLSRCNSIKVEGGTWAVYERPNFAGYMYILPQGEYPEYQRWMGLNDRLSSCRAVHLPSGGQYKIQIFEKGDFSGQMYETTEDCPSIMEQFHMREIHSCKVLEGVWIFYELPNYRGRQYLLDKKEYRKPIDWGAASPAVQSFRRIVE

human αA-crystallin, sequence (P02489 whole entry): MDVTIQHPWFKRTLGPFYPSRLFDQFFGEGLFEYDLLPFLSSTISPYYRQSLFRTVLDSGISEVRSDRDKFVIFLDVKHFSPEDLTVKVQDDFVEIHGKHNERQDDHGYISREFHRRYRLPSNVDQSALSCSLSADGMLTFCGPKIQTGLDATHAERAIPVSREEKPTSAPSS

particle radius by dynamic light scattering, 30 to 60 °C; 1:1 molar ratio mixture (the mutant alone: 1063 nm radius after heating to 60 °C): 13.3 nm
Substance: human αA-crystallin (from UniProt P02489 1-173) (natural protein)
